Target: BLM, endogenous, P54132
Experiment: PLA (α-Flag + α-BLM)
Conditions: chain shown with the change, U2OS cells, 2 h, read off a plot

response (PLA dots per cell) (20 μM ETO, parent: est. 100): 24 | response (PLA dots per cell) (DMSO, parent: est. 13): 5
B1: Flag-tagged GNL3 (Flag-GNL3), wild type, Q9BVP2 143VVLEVL149 to 143VAAEAL149 (SIMm) (protein)
chain: MKRPKLKKASKRMTCHKRYKIQKKVREHHRKLRKEAKKRGHKKPRKDPGVPNSAPFKEALLREAELRKQRLEELKQQQKLDRQKELEKKRKLETNPDIKPSNVEPMEKEFGLCKTENKAKSGKQNSKKLYCQELKKVIEASDVAAEALDARDPLGCRCPQVEEAIVQSGQKKLVLILNKSDLVPKENLESWLNYLKKELPTVVFRASTKPKDKGKITKRVKAKKNAAPFRSEVCFGKEGLWKLLGGFQETCSKAIRVGVIGFPNVGKSSIINSLKQEQMCNVGVSMGLTRSMQVVPLDKQITIIDSPSFIVSPLNSSSALALRSPASIEVVKPMEAASAILSQADARQVVLKYTVPGYRNSLEFFTVLAQRRGMHQKGGIPNVEGAAKLLWSEWTGASLAYYCHPPTSWTPPPYFNESIVVDMKSGFNLEELEKNNAQSIRAIKGPHLANSILFQSSGLTNGIIEEKDIHEELPKRKERKQEEREDDKDSDQETVDEEVDENSSGMFAAEETGEALSEETTAGEQSTRSFILDKIIEEDDAYDFSTDYV

Reference: publication PMC13598120
